# Laboratory results taken from the supplement of paper PMC10567573.
# B1: NR2F2 (parent)
# chain: VAHVESLQEKSQCALEEYVRSQYP
# Variants of: B1
# Experiment: protein stability index of a GFP-peptide fusion (GPS, HEK-293T) (PSI 1-6); higher = more stable
# Conditions: c terminus: a fixed tail appended
# 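Note: lentivirally expressed fusions sorted by FACS into six bins by GFP to DsRed ratio, PSI derived from sequencing read proportions per bin multiplied by bin number.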
row,Variant,protein stability index
1,VAHVASLQEKSQCALEEYVRSQYP,3.27
2,VAHVNSLQEKSQCALEEYVRSQYP,3.38
3,VAHVPSLQEKSQCALEEYVRSQYP,3.04
4,VAHVMSLQEKSQCALEEYVRSQYP,2.69
5,VAHVRSLQEKSQCALEEYVRSQYP,2.63
6,VAHVFSLQEKSQCALEEYVRSQYP,1.92
7,VAHVHSLQEKSQCALEEYVRSQYP,3.02
8,VAHVVSLQEKSQCALEEYVRSQYP,2.48
9,VAHVTSLQEKSQCALEEYVRSQYP,2.93
10,VAHVGSLQEKSQCALEEYVRSQYP,2.9
11,VAHVWSLQEKSQCALEEYVRSQYP,2.14
12,VAHVKSLQEKSQCALEEYVRSQYP,2.96
13,VAHVQSLQEKSQCALEEYVRSQYP,3.52
14,VAHVDSLQEKSQCALEEYVRSQYP,3.18
15,VAHVSSLQEKSQCALEEYVRSQYP,2.53
16,VAHVYSLQEKSQCALEEYVRSQYP,2.13
17,VAHVCSLQEKSQCALEEYVRSQYP,1.97
18,VAHVLSLQEKSQCALEEYVRSQYP,2.37
19,VAHVISLQEKSQCALEEYVRSQYP,2.41
20,VMHVESLQEKSQCALEEYVRSQYP,3.03
21,VLHVESLQEKSQCALEEYVRSQYP,2.85
22,VCHVESLQEKSQCALEEYVRSQYP,2.54
23,VDHVESLQEKSQCALEEYVRSQYP,3.85
24,VIHVESLQEKSQCALEEYVRSQYP,2.56

row,Variant,protein stability index
1,VFHVESLQEKSQCALEEYVRSQYP,2.59
2,VSHVESLQEKSQCALEEYVRSQYP,3.87
3,VYHVESLQEKSQCALEEYVRSQYP,3.25
4,VQHVESLQEKSQCALEEYVRSQYP,3.33
5,VEHVESLQEKSQCALEEYVRSQYP,4.27
6,VWHVESLQEKSQCALEEYVRSQYP,2.29
7,VRHVESLQEKSQCALEEYVRSQYP,3.55
8,VTHVESLQEKSQCALEEYVRSQYP,3.73
9,VVHVESLQEKSQCALEEYVRSQYP,3.27
10,VGHVESLQEKSQCALEEYVRSQYP,3.53
11,VPHVESLQEKSQCALEEYVRSQYP,3.76
12,VHHVESLQEKSQCALEEYVRSQYP,2.98
13,VNHVESLQEKSQCALEEYVRSQYP,3.1
14,VKHVESLQEKSQCALEEYVRSQYP,3.48
15,VAHVESCQEKSQCALEEYVRSQYP,3.81
16,VAHVESNQEKSQCALEEYVRSQYP,4.68
17,VAHVESRQEKSQCALEEYVRSQYP,3.89
18,VAHVESAQEKSQCALEEYVRSQYP,3.92
19,VAHVESIQEKSQCALEEYVRSQYP,3.82
20,VAHVESQQEKSQCALEEYVRSQYP,4.08
21,VAHVESSQEKSQCALEEYVRSQYP,4.29
22,VAHVESGQEKSQCALEEYVRSQYP,3.55
23,VAHVESVQEKSQCALEEYVRSQYP,4.05
